According to patent US6905854B2, “Mutated penicillin expandase and process for preparing 7-ADCA using the same” (Synmax Biochemical Co., Ltd., priority 2002, dated 2005):
Residue numbers refer to the chain shown, from its start. Names and notes keep the numbering of the source.

B1: YS49: mutated penicillin expandase (DAOCS) with substitution L277K (protein, UniProt P18548 1-311, looked up, variant L277K)
Deacetoxycephalosporin C …: MDTTVPTFSLAELQQGLHQDEFRRCLRDKGLFYLTDCGLTDTELKSAKDLVIDFFEHGSEAEKRAVTSPVPTMRRGFTGLESESTAQITNTGSYSDYSMCYSMGTADNLFPSGDFERIWTQYFDRQYTASRAVAREVLRATGTEPDGGVEAFLDCEPLLRFRYFPQVPEHRSAEEQPLRMAPHYDLSMVTLIQQTPCANGFVSLQAEVGGAFTDLPYRPDAVLVFCGAIATLVTGGQVKAPRHHVAAPRRDQIAGSSRTSSVFFLRPNADFTFSVPKARECGFDVSLDGETATFQDWIGGNYVNIRRTSKA
B2: YS8: mutated penicillin expandase (DAOCS) with substitution I305L (protein, UniProt P18548 1-311, looked up, variant I305L)
Deacetoxycephalosporin C …: B1 Deacetoxycephalosporin C … with K277L, I305L
B3: YS11: mutated penicillin expandase (DAOCS) with substitution I305M (protein, UniProt P18548 1-311, looked up, variant I305M)
Deacetoxycephalosporin C …: B1 Deacetoxycephalosporin C … with K277L, I305M
B4: YS12: mutated penicillin expandase (DAOCS) with substitution N304K (protein, UniProt P18548 1-311, looked up, variant N304K)
Deacetoxycephalosporin C …: B1 Deacetoxycephalosporin C … with K277L, N304K
B5: YS67: mutated penicillin expandase (DAOCS) with substitutions V275I and I305M (protein, UniProt P18548 1-311, looked up, variant V275I I305M)
Deacetoxycephalosporin C …: B1 Deacetoxycephalosporin C … with V275I, K277L, I305M
B6: YS16: wild-type expandase (DAOCS, cefE gene) from Streptomyces clavuligerus, parent strain (protein, UniProt P18548 1-311, looked up)
Deacetoxycephalosporin C …: B1 Deacetoxycephalosporin C … with K277L
B7: YS88: combined DAOCS mutant, mutated sites 79E, 275I, 281Y (protein, UniProt P18548 1-311, looked up, variant G79E V275I C281Y)
Deacetoxycephalosporin C …: B1 Deacetoxycephalosporin C … with G79E, V275I, K277L, C281Y
B8: YS100: combined DAOCS mutant, mutated sites 79E, 275I, 305L (protein, UniProt P18548 1-311, looked up, variant G79E V275I I305L)
Deacetoxycephalosporin C …: B1 Deacetoxycephalosporin C … with G79E, V275I, K277L, I305L
B9: SC39: combined DAOCS mutant, mutated sites 73T, 281Y (protein, UniProt P18548 1-311, looked up, variant M73T C281Y)
Deacetoxycephalosporin C …: B1 Deacetoxycephalosporin C … with M73T, K277L, C281Y
B10: YS74: combined DAOCS mutant, mutated sites 275I, 304K, 305L (protein, UniProt P18548 1-311, looked up, variant V275I N304K I305L)
Deacetoxycephalosporin C …: B1 Deacetoxycephalosporin C … with V275I, K277L, N304K, I305L
B11: YS81: combined DAOCS mutant, mutated sites 275I, 281Y, 305M (protein, UniProt P18548 1-311, looked up, variant V275I C281Y I305M)
Deacetoxycephalosporin C …: B1 Deacetoxycephalosporin C … with V275I, K277L, C281Y, I305M
B12: YH2: mutated penicillin expandase (DAOCS) with substitution H244R (protein, UniProt P18548 1-311, looked up, variant H244R)
Deacetoxycephalosporin C …: B1 Deacetoxycephalosporin C … with H244R, K277L
B13: SC59: DNA-shuffled combined DAOCS mutant with C155Y, Y184H, V275I and C281Y (protein, UniProt P18548 1-311, looked up, variant C155Y Y184H V275I C281Y)
Deacetoxycephalosporin C …: B1 Deacetoxycephalosporin C … with C155Y, Y184H, V275I, K277L, C281Y
B14: YS69: mutated penicillin expandase (DAOCS) with substitution M188I (protein, UniProt P18548 1-311, looked up, variant M188I)
Deacetoxycephalosporin C …: B1 Deacetoxycephalosporin C … with M188I, K277L
B15: YS71: mutated penicillin expandase (DAOCS) with substitution A106T (protein, UniProt P18548 1-311, looked up, variant A106T)
Deacetoxycephalosporin C …: B1 Deacetoxycephalosporin C … with A106T, K277L
B16: YS72: mutated penicillin expandase (DAOCS) with substitution C155Y (protein, UniProt P18548 1-311, looked up, variant C155Y)
Deacetoxycephalosporin C …: B1 Deacetoxycephalosporin C … with C155Y, K277L

Legend:
Assay type in all cases: biochemical
[1] = Kinetic assay of purified DAOCS with penicillin G (standard penicillin G assay, HPLC of cephalosporin G); settings: for penicillin G, 20 μg purified DAOCS, 1 mM α-ketoglutarate, 30° C.; for Km: triplicate, Hanes-Woolf Plot
Experimental: (§1) For penicillin G, 20 μl of cell extracts was added into a standard 200 μl assay reaction containing 50 mM Mops/pH 7.5, 4 mM ascorbate, 1 mM FeSO4, 4 mM α-ketoglutarate and 7 mM penicillin G, and incubated at 30° C. for 20 minutes. The reaction was stopped by addition of 200 μl of ethanol, followed by a centrifugation at 15,000×g for 5 minutes. The concentration of cephalosporin G in supernatant was analyzed by HPLC with 40 μl injection. The mobile phase was 25 mM potassium phosphate/pH 6.5 with 19% acetonitrile at a flow rate of 1 ml/min. The retention time for cephalosporin G was 8.5 minutes and 12.5 minutes for penicillin G with detection at 215 nm, and the product at 8.5 minutes in DAOCS reaction was confirmed by ESI-LC/MS (positive): [M+H]^+=333. […] The different combinations of the mutated amino acids mentioned above were also constructed by site-directed mutagenesis.
(§2) The cell extract (2 ml) of a candidate mutant was applied onto a HiTrap Q column (5 ml) pre-equilibrated with buffer B (50 mM Mops/pH 7.5, 1 mM DTT, 0.4 mM pefabloc SC, and 0.5 μg/ml leupeptin). Then, the column was washed with 20 ml of buffer B, followed by a further wash with 25 ml of buffer B containing 120 mM NaCl, and DAOCS was eluted off with 20 ml of buffer B containing 150 mM NaCl. The DAOCS containing fractions were pooled (10 ml), concentrated by UF 15 device (NMWL 5K; Millipore), and loaded onto a Hiload Superdex 75 (16/60) column pre-equilibrated with buffer B at a flow rate of 1 ml/min.
(§3) The standard penicillin G assay was followed for kinetic assay, but 20 μg of purified DAOCS was used and the concentration of α-ketoglutarate was reduced to 1 mM. Kinetic parameters were obtained from triplicate experiments by Hanes-Woolf Plot. For assays using penicillin N as a main substrate, a total volume of 240 μl reaction containing 50 mM Hepes/pH 7.5, 0.4 mM ascorbate, 0.1 mM FeSO4, 0.1 mM α-ketoglutarate, 0.1 mM penicillin N and 0.5 μg of purified DAOCS was incubated at 30° C. for 10 minutes, then the same volume of 10 mM EDTA/pH 7.5 was added, and the mixture was subjected to ultrafiltration with UF 0.5 device (NMWL 5000, Millipore). The filtrate was analyzed by HPLC using 25 mM potassium phosphate/pH 6.5 as a mobile phase. The retention time of DAOC and penicillin N was 12 minutes and 13.5 minutes, respectively The results of kinetic parameters are shown in Table 1, wherein the definition and calculation of the parameters are described in Lehninger et al. Principles of Biochemistry, 2nd Ed. Worth Publishers, New York (1993) which is incorporated herein for reference.

[2] = DAOCS activity assay with cell extracts; settings: 20 μl cell extract, 7 mM penicillin G, 30° C., 20 minutes
Experimental: BL21(DE3) transformants were grown overnight in 5 ml of LB medium with 50 μg/ml kanamycin at 30° C. This culture was used to inoculate 100 ml of the same medium and grown at 30° C. for 1 hour. Then 0.1 mM IPTG was added to induce DAOCS indirectly at 30° C. for 4 hours. Cells were harvested, washed with buffer A (50 mM Mops/pH 7.5, 1 mM PMSF, 1 mM DTT, and 0.5 μg/ml leupeptin), lysed by sonication (VCX 750; Sonics & Materials, USA), and centrifuged at 15,000×g for 15 minutes. The supernatant was used as a cell extract.
as §1

[3] = Kinetic assay of purified DAOCS with penicillin N as main substrate; settings: for kcat / Km: for penicillin N, 0.5 μg purified DAOCS, 30° C., 10 minutes; for Km: triplicate, Hanes-Woolf Plot
Experimental: as §2, §3

[4] = Relative activity of purified combined mutants compared to wild type DAOCS; settings: 1 mM penicillin G; activity of wild-type DAOCS as 100%
Experimental: as §1, §3
The relative activities of the mutants are determined according to Chin H. S. et al supra with the activity of wild-type DAOCS as 100% and shown in Table 2. The assay was performed with 1 mM penicillin G, and the other conditions were the same as standard assay.

Row | Molecule | kcat [1] [S^−1] | Km [1] [µM] | expandase activity on penicillin G compared to parent strain YS16 [2] | kcat [3] [S^−1] | Km [3] [µM] | expansion activity on penicillin N, folds higher than wild-type YS16 ([3]; penicillin N, compared to wild-type YS16) [folds] | Relative Activities [4] [%]
1 | B1 | 0.0514 ± 0.0008 | 720 ± 20 | higher expandase activities on penicillin G than the parent strain YS16 | 0.220 ± 0.042 | 11 ± 5 |  | 
2 | B2 | 0.0759 ± 0.0015 | 660 ± 70 | higher expandase activities on penicillin G than the parent strain YS16 | 0.284 ± 0.030 | 6 ± 2 |  | 
3 | B3 | 0.1452 ± 0.0020 | 750 ± 40 | higher expandase activities on penicillin G than the parent strain YS16 | 0.310 ± 0.004 | 12 ± 1 |  | 
4 | B4 | 0.0564 ± 0.0003 | 220 ± 30 | higher expandase activities on penicillin G than the parent strain YS16 | 0.366 ± 0.023 | 4 ± 1 | 4 | 
5 | B5 | 0.1458 ± 0.0038 | 250 ± 80 |  | 0.316 ± 0.032 | 13 ± 5 |  | 500
6 | B6 | 0.0453 ± 0.0010 | 2580 ± 220 |  | 0.307 ± 0.038 | 14 ± 6 |  | 100
7 | B7 |  |  |  |  |  |  | 430
8 | B8 |  |  |  |  |  |  | 470
9 | B9 |  |  |  |  |  |  | 610
10 | B10 |  |  |  |  |  |  | 300
11 | B11 |  |  |  |  |  |  | 1290
12 | B12 | 0.0672 ± 0.0008 | 2450 ± 40 |  | 0.236 ± 0.005 | 8 ± 1 |  | 
13 | B13 | 0.1398 ± 0.0015 | 190 ± 2 |  | 0.048 ± 0.001 | 92 ± 0.5 |  | 
14 | B14 | 0.0507 ± 0.0006 | 1960 ± 90 |  | 0.277 ± 0.004 | 11 ± 1 |  | 
15 | B15 | 0.0453 ± 0.0009 | 1770 ± 150 |  | 0.277 ± 0.014 | 13 ± 2 |  | 
16 | B16 | 0.0476 ± 0.0012 | 1760 ± 50 |  | 0.235 ± 0.008 | 16 ± 0.5 |  | 
